Experimental data taken from paper PMC2661963, “The Active Site of a Carbohydrate Esterase Displays Divergent Catalytic and Noncatalytic Binding Functions” (PLoS Biology, 2009).
Residue numbers refer to the chain shown, from its start. Names and notes keep the numbering of the source. Blank lines part the entries; values can stand above or below the molecule they belong to.

Key:
CtCE2 [1] = target: T1, CtCE2 (Acetivibrio thermocellus, UniProt P10477); experiment: isothermal titration calorimetry; format: binding; conditions: 50 mM HEPES-Na, 25 °C; pH 8.0 with 300 mM NaCl (Methods; Figure 5 legend says pH 7.0); binds across esterase active site
T1 construct: gene celE; C-terminal CE2 esterase module only, residues 482-814 of the full-length enzyme, C-terminal His6 tag, pET22b, E. coli BL21
T1 sequence (P10477 482-814): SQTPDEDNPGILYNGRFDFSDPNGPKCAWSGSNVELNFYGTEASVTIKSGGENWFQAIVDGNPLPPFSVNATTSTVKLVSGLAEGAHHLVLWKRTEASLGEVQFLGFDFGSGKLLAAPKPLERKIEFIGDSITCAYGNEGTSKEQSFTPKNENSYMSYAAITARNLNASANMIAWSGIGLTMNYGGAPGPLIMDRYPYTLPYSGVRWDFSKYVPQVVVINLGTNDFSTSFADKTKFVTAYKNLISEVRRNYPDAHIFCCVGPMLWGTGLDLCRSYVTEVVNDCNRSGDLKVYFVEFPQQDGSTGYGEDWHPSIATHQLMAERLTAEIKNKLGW
Source text: (§1) isothermal titration calorimetry on CtCE2

CtCE2 [2] = target: T2, CtCE2 (Acetivibrio thermocellus, UniProt P10477, S612A); experiment: isothermal titration calorimetry; format: binding; conditions: 50 mM HEPES-Na, 25 °C; pH 8.0 with 300 mM NaCl (Methods; Figure 5 legend says pH 7.0); binds across esterase active site
T2 construct: gene celE; C-terminal CE2 esterase module only, residues 482-814 of the full-length enzyme, C-terminal His6 tag, pET22b, E. coli BL21
T2 sequence (P10477 482-814 S612A): as the sequence (P10477 482-814) above, with S131A counted along it
Source text: as §1

CtCE2 [3] = target: T3, CtCE2 (Acetivibrio thermocellus, UniProt P10477, W746A); experiment: isothermal titration calorimetry; format: binding; conditions: 50 mM HEPES-Na, 25 °C; pH 8.0 with 300 mM NaCl (Methods; Figure 5 legend says pH 7.0); binds across esterase active site
T3 construct: gene celE; C-terminal CE2 esterase module only, residues 482-814 of the full-length enzyme, C-terminal His6 tag, pET22b, E. coli BL21
T3 sequence (P10477 482-814 W746A): as the sequence (P10477 482-814) above, with W265A counted along it
Source text: as §1

CtCE2 [4] = target: T4, CtCE2 (Acetivibrio thermocellus, UniProt P10477, Y683A); experiment: isothermal titration calorimetry; format: binding; conditions: 50 mM HEPES-Na, 25 °C; pH 8.0 with 300 mM NaCl (Methods; Figure 5 legend says pH 7.0); binds across esterase active site
T4 construct: gene celE; C-terminal CE2 esterase module only, residues 482-814 of the full-length enzyme, C-terminal His6 tag, pET22b, E. coli BL21
T4 sequence (P10477 482-814 Y683A): as the sequence (P10477 482-814) above, with Y202A counted along it
Source text: as §1

CtCE2 [5] = target: T5, CtCE2 (Acetivibrio thermocellus, UniProt P10477, H791A); experiment: isothermal titration calorimetry; format: binding; conditions: 50 mM HEPES-Na, 25 °C; pH 8.0 with 300 mM NaCl (Methods; Figure 5 legend says pH 7.0); binds across esterase active site
T5 construct: gene celE; C-terminal CE2 esterase module only, residues 482-814 of the full-length enzyme, C-terminal His6 tag, pET22b, E. coli BL21
T5 sequence (P10477 482-814 H791A): as the sequence (P10477 482-814) above, with H310A counted along it
Source text: as §1

CtCE2 [6] = target: T1, CtCE2; experiment: inhibition of 4-nitrophenyl acetate hydrolysis; format: biochemical; conditions: substrate 4-nitrophenyl acetate; noncompetitive; 37 °C
Source text: inhibition of 4-nitrophenyl acetate hydrolysis on CtCE2

purified protein [7] = substrate: CC(=O)Oc1ccc([N+](=O)[O-])cc1; experiment: purified protein; format: biochemical, Acetivibrio thermocellus; conditions: 50 mM sodium phosphate pH 7.0, 1 mg/ml BSA
purified protein [8] = substrate: CC(=O)Oc1ccc([N+](=O)[O-])cc1; experiment: purified protein; format: biochemical, Cellvibrio japonicus; conditions: 50 mM sodium phosphate pH 7.0, 1 mg/ml BSA

Kd (CtCE2 [1]): 71 µM
Molecule: OC[C@H]1O[C@@H](O[C@H]2[C@H](O)[C@@H](O)[C@H](O[C@H]3[C@H](O)[C@@H](O)[C@H](O[C@H]4[C@H](O)[C@@H](O)[C@H](O[C@H]5[C@H](O)[C@@H](O)C(O)O[C@@H]5CO)O[C@@H]4CO)O[C@@H]3CO)O[C@@H]2CO)[C@H](O)[C@@H](O)[C@@H]1O (stereo partly shown) [cellopentaose]

Kd (CtCE2 [2]): 4.1 µM
Kd (CtCE2 [3]): > 1000 µM
Kd (CtCE2 [4]): 37 µM
Kd (CtCE2 [5]): 667 µM
Kd (CtCE2 [1]): 33 µM
Ki (CtCE2 [6]): 3.1 µM
Molecule: OC[C@H]1O[C@@H](O[C@H]2[C@H](O)[C@@H](O)[C@H](O[C@H]3[C@H](O)[C@@H](O)[C@H](O[C@H]4[C@H](O)[C@@H](O)[C@H](O[C@H]5[C@H](O)[C@@H](O)[C@H](O[C@H]6[C@H](O)[C@@H](O)C(O)O[C@@H]6CO)O[C@@H]5CO)O[C@@H]4CO)O[C@@H]3CO)O[C@@H]2CO)[C@H](O)[C@@H](O)[C@@H]1O (stereo partly shown) [cellohexaose]

Kd (CtCE2 [1]): > 1000 µM
Molecule: OC[C@H]1O[C@@H](O[C@H]2[C@H](O)[C@@H](O)[C@H](O[C@H]3[C@H](O)[C@@H](O)C(O)O[C@@H]3CO)O[C@@H]2CO)[C@H](O)[C@@H](O)[C@@H]1O (stereo partly shown) [cellotriose]

Kd (CtCE2 [1]): 333 µM
Molecule: OC[C@H]1O[C@@H](O[C@H]2[C@H](O)[C@@H](O)[C@H](O[C@H]3[C@H](O)[C@@H](O)[C@H](O[C@H]4[C@H](O)[C@@H](O)C(O)O[C@@H]4CO)O[C@@H]3CO)O[C@@H]2CO)[C@H](O)[C@@H](O)[C@@H]1O (stereo partly shown) [cellotetraose]

B1: CtCE2 (Acetivibrio thermocellus ATCC 27405; D789A) (protein)
chain: SQTPDEDNPGILYNGRFDFSDPNGPKCAWSGSNVELNFYGTEASVTIKSGGENWFQAIVDGNPLPPFSVNATTSTVKLVSGLAEGAHHLVLWKRTEASLGEVQFLGFDFGSGKLLAAPKPLERKIEFIGDSITCAYGNEGTSKEQSFTPKNENSYMSYAAITARNLNASANMIAWSGIGLTMNYGGAPGPLIMDRYPYTLPYSGVRWDFSKYVPQVVVINLGTNDFSTSFADKTKFVTAYKNLISEVRRNYPDAHIFCCVGPMLWGTGLDLCRSYVTEVVNDCNRSGDLKVYFVEFPQQDGSTGYGEAWHPSIATHQLMAERLTAEIKNKLGW
notes: C-terminal CE2 esterase module only, residues 482-814 of the full-length enzyme, C-terminal His6 tag, pET22b, E. coli BL21
Km (purified protein [7]): 75 µM
kcat (purified protein [7]): 2,512 min-1

B2: CtCE2 (Acetivibrio thermocellus ATCC 27405; D789N) (protein)
chain: B1 chain with A308N
notes: as for B1
Km (purified protein [7]): 186 µM
kcat (purified protein [7]): 2,976 min-1

B3: CtCE2 (Acetivibrio thermocellus ATCC 27405) (protein)
chain: B1 chain with A308D
notes: as for B1
Km (purified protein [7]): 165 µM
kcat (purified protein [7]): 7,032 min-1

B4: CjCE2B (Cellvibrio japonicus Ueda107) (protein)
chain: ADSTKPLPLHIGGRVLVESPANQPVSYTYSWPAVYFETAFKGQSLTLKFDDDQNIFRLIVDDKAPVVINKPGKVDYPVESLAPGKHRVRLEKLTETQSTSGRFLGFYTDPSAKPLALPKRKRQIEFIGDSFTVGYGNTSPSRECTDEELFKTTNSQMAFGPLTAKAFDADYQINASSGFGIVRNYNGTSPDKSLLSLYPYTLNNPDQLYHNKHWKPQVIVIGLGTNDFSTALNDNERWKTREALHADYVANYVKFVKQLHSNNARAQFILMNSDQSNGEIAEQVGKVVAQLKGGGLHQVEQIVFKGLDYSGCHWHPSANDDQLLANLLITHLQQKKGIW
notes: mature form (signal peptide removed), C-terminal His6 tag, pET22b, E. coli BL21; model ordered 26-361; Cys-333, Trp-335, Tyr-206
Km (purified protein [8]): 262 µM
kcat (purified protein [8]): 49,820 min-1

B5: CjCE2A (Cellvibrio japonicus Ueda107) (protein)
chain: NTQSLMSSTHTIAASDPHIQVMGRTHINDDASLTFGYPGVSLSTIVAGSRLTAEMQSSNGNSWIDVIIDNHPPTSIKLDAQQQTVELFHFPNSGEHRVEIIHRSENWHGQVTLKQLTLTGTQFLPAPVLPQRKILVLGDSVTCGEAIDRVAGEDKNTRWWNARESYGMLTAKALDAQVQLVCWGGRGLIRSWNGKTDDANLPDFYQFTLGDTGQAPQWDHHRYQPDLIISAIGTNDFSPGIPDRATYINTYTRFVRTLLDNHPQATIVLTEGAILNGDKKAALVSYIGETRQQLHSNRVFYASSSHHPGDNSDAHPTKDQHAAMARELTPQLRQIMDW
notes: mature form (signal peptide removed), C-terminal His6 tag, pET22b, E. coli BL21; catalytic triad Ser-160, His-335, Asp-333; Trp-127, Trp-212
Km (purified protein [8]): 339 µM
kcat (purified protein [8]): 7,717 min-1
